The source of these data is the supplement of paper PMC10567573.

The labels stand for the following.
B1: CAMK2D (parent)
chain: LLKHPNIVRLHDSISEEGFHYLVF
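Also: lentivirally expressed fusions sorted by FACS into six bins by GFP to DsRed ratio, PSI derived from sequencing read proportions per bin multiplied by bin number.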

Variants of B1 are the subject of the data set. The experiment in a line: protein stability index of a GFP-peptide fusion (GPS, HEK-293T) (PSI 1-6); higher = more stable. Particulars: c terminus: a fixed tail appended.
LLKHPNIVRLHDSISEEGFHYLGF [V23G]: the protein stability index is 2.12.

For LLKHPNIVRLHDSISEEGFHYLNF [V23N], the protein stability index was determined as 3.14.

Consider LLKHPNIVRLHDSISEEGFHYLRF [V23R], for which the protein stability index is 3.22.

On to LLKHPNIVRLHDSISEEGFHYLFF [V23F], for which the protein stability index stood at 1.91.

LLKHPNIVRLHDSISEEGFHYLEF [V23E]: the protein stability index worked out at 1.38.

For LLKHPNIVRLHDSISEEGFHYLIF [V23I], the protein stability index is 1.99.

For the variant LLKHPNIVRLHDSISEEGFHYLPF [V23P], the protein stability index stood at 1.84.

For the variant LLKHPNIVRLHDSISEEGFHYLDF [V23D], the protein stability index amounted to 2.19.

With LLKHPNIVRLHDSISEEGFHYLWF [V23W], the protein stability index was found to be 2.78.

As to LLKHPNIVRLHDSISEEGFHGLVF [Y21G], the protein stability index came out at 2.37.

As for LLKHPNIVRLHDSISEEGFHCLVF [Y21C], the protein stability index came out at 2.

LLKHPNIVRLHDSISEEGFHILVF [Y21I]: the protein stability index turned out to be 1.79.

Turning to LLKHPNIVRLHDSISEEGFHHLVF [Y21H], the protein stability index came to 2.03.

For LLKHPNIVRLHDSISEEGFHRLVF [Y21R], the protein stability index was determined as 2.63.

LLKHPNIVRLHDSISEEGFHSLVF [Y21S]: the protein stability index is 2.33.

With LLKHPNIVRLHDSISEEGFHTLVF [Y21T], the protein stability index was 2.25.

Take LLKHPNIVRLHDSISEEGFHNLVF [Y21N]: the protein stability index was 2.39.

Turning to LLKHPNIVRLHDSISEEGFHELVF [Y21E], the protein stability index is 2.32.

As for LLKHPNIVRLHDSISEEGFHQLVF [Y21Q], the protein stability index is 2.39.

In the case of LLKHYNIVRLHDSISEEGFHYLVF [P5Y], the protein stability index came to 1.57.

On to LLKHGNIVRLHDSISEEGFHYLVF [P5G], for which the protein stability index was determined as 1.76.

As for LLKHQNIVRLHDSISEEGFHYLVF [P5Q], the protein stability index is 2.6.

Take LLKHCNIVRLHDSISEEGFHYLVF [P5C]: the protein stability index is 2.29.

LLKHHNIVRLHDSISEEGFHYLVF [P5H]: the protein stability index turned out to be 2.4.

For LLKHSNIVRLHDSISEEGFHYLVF [P5S], the protein stability index came out at 2.59.

With LLKHANIVRLHDSISEEGFHYLVF [P5A], the protein stability index was 2.2.

As for LLKHPRIVRLHDSISEEGFHYLVF [N6R], the protein stability index amounted to 2.54.

As to LLKHPPIVRLHDSISEEGFHYLVF [N6P], the protein stability index was 2.15.

Turning to LLKHPWIVRLHDSISEEGFHYLVF [N6W], the protein stability index was found to be 2.75.

Take LLKHPYIVRLHDSISEEGFHYLVF [N6Y]: the protein stability index stood at 3.11.

With LLKHPLIVRLHDSISEEGFHYLVF [N6L], the protein stability index was found to be 3.32.

On to LLKHPVIVRLHDSISEEGFHYLVF [N6V], for which the protein stability index came out at 3.01.

Consider LLKHPFIVRLHDSISEEGFHYLVF [N6F], for which the protein stability index was determined as 2.94.

In the case of LLKHPNIVRLHDSISEEGFRYLVF [H20R], the protein stability index came out at 2.08.

For LLKHPNIVRLFDSISEEGFHYLVF [H11F], the protein stability index worked out at 1.96.

For LLKHPNIVRLRDSISEEGFHYLVF [H11R], the protein stability index worked out at 2.79.

With LLKHPNIVRLYDSISEEGFHYLVF [H11Y], the protein stability index stood at 2.88.

On to LLKHPNIVRLNDSISEEGFHYLVF [H11N], for which the protein stability index turned out to be 2.29.

Regarding LLKHPNIVRLSDSISEEGFHYLVF [H11S], the protein stability index came out at 1.8.

Consider LLKHPNIVRLKDSISEEGFHYLVF [H11K], for which the protein stability index is 3.01.

On to LLKHPNIVRLCDSISEEGFHYLVF [H11C], for which the protein stability index turned out to be 2.84.

In the case of HLKHPNIVRLHDSISEEGFHYLVF [L1H], the protein stability index stood at 1.51.

For YLKHPNIVRLHDSISEEGFHYLVF [L1Y], the protein stability index came out at 1.96.

For CLKHPNIVRLHDSISEEGFHYLVF [L1C], the protein stability index is 1.97.

On to ELKHPNIVRLHDSISEEGFHYLVF [L1E], for which the protein stability index was found to be 2.23.

As to TLKHPNIVRLHDSISEEGFHYLVF [L1T], the protein stability index is 1.62.

With FLKHPNIVRLHDSISEEGFHYLVF [L1F], the protein stability index is 2.89.

DLKHPNIVRLHDSISEEGFHYLVF [L1D]: the protein stability index came to 4.59.

Take VLKHPNIVRLHDSISEEGFHYLVF [L1V]: the protein stability index was determined as 2.25.

On to LLKHPNIVRLHDEISEEGFHYLVF [S13E], for which the protein stability index worked out at 1.47.

Take LLKHPNIVRLHDKISEEGFHYLVF [S13K]: the protein stability index amounted to 2.81.

On to LLKHPNIVRLHDWISEEGFHYLVF [S13W], for which the protein stability index amounted to 1.84.

Consider LLKHPNIVRLHDFISEEGFHYLVF [S13F], for which the protein stability index came to 1.5.

Consider LLKHPNIVRLHCSISEEGFHYLVF [D12C], for which the protein stability index was found to be 3.3.

As to LLKHPNIVRLHNSISEEGFHYLVF [D12N], the protein stability index came to 1.61.

Consider LLKHPNIVRLHPSISEEGFHYLVF [D12P], for which the protein stability index came to 2.38.

Turning to LLKHPNIVRLHLSISEEGFHYLVF [D12L], the protein stability index amounted to 2.47.

Consider LLKHPNIVRLHHSISEEGFHYLVF [D12H], for which the protein stability index stood at 3.02.

Take LLKHPNIVRLHYSISEEGFHYLVF [D12Y]: the protein stability index was found to be 2.35.

For the variant LLKHPNIVRLHISISEEGFHYLVF [D12I], the protein stability index was 2.54.

Take LLKHPNIVRLHKSISEEGFHYLVF [D12K]: the protein stability index is 3.1.

For the variant LLKHPNIVRLHTSISEEGFHYLVF [D12T], the protein stability index is 2.59.

Consider LLKWPNIVRLHDSISEEGFHYLVF [H4W], for which the protein stability index was 1.44.

On to LLKMPNIVRLHDSISEEGFHYLVF [H4M], for which the protein stability index was found to be 3.37.

As to LLKSPNIVRLHDSISEEGFHYLVF [H4S], the protein stability index turned out to be 1.94.

As to LLKLPNIVRLHDSISEEGFHYLVF [H4L], the protein stability index turned out to be 2.79.

With LLKKPNIVRLHDSISEEGFHYLVF [H4K], the protein stability index came out at 3.21.

For the variant LLKRPNIVRLHDSISEEGFHYLVF [H4R], the protein stability index came to 2.6.

With LLKQPNIVRLHDSISEEGFHYLVF [H4Q], the protein stability index worked out at 1.06.

As to LLKIPNIVRLHDSISEEGFHYLVF [H4I], the protein stability index was determined as 2.28.

On to LLKHPNIKRLHDSISEEGFHYLVF [V8K], for which the protein stability index was 2.05.

For the variant LLKHPNIFRLHDSISEEGFHYLVF [V8F], the protein stability index turned out to be 1.47.

In the case of LLKHPNIQRLHDSISEEGFHYLVF [V8Q], the protein stability index worked out at 1.94.

For LLKHPNIPRLHDSISEEGFHYLVF [V8P], the protein stability index stood at 2.01.

For the variant LLKHPNIHRLHDSISEEGFHYLVF [V8H], the protein stability index amounted to 1.8.

As for LLKHPNIMRLHDSISEEGFHYLVF [V8M], the protein stability index was 2.59.

On to LLKHPNIVRLHDSIMEEGFHYLVF [S15M], for which the protein stability index was found to be 3.4.

Take LLKHPNIVRLHDSIYEEGFHYLVF [S15Y]: the protein stability index stood at 2.34.

For LLKHPNIVRLHDSIEEEGFHYLVF [S15E], the protein stability index came to 2.57.

LLKHPNIVRLHDSILEEGFHYLVF [S15L]: the protein stability index was found to be 2.19.

With LLKHPNIVRLHDSINEEGFHYLVF [S15N], the protein stability index is 2.31.

As to LLKHPNIVRLHDSIHEEGFHYLVF [S15H], the protein stability index stood at 2.1.

LLKHPNIVRLHDSIDEEGFHYLVF [S15D]: the protein stability index came out at 1.44.

Take LLKHPNIVRPHDSISEEGFHYLVF [L10P]: the protein stability index is 2.49.

On to LLKHPNIVRHHDSISEEGFHYLVF [L10H], for which the protein stability index was 2.14.

Turning to LLKHPNIVRSHDSISEEGFHYLVF [L10S], the protein stability index amounted to 1.86.

For LLKHPNIVRCHDSISEEGFHYLVF [L10C], the protein stability index turned out to be 2.11.

LLKHPNIVRDHDSISEEGFHYLVF [L10D]: the protein stability index was 1.74.

As for LLKHPNIVRFHDSISEEGFHYLVF [L10F], the protein stability index worked out at 3.99.

LLKHPNIVRQHDSISEEGFHYLVF [L10Q]: the protein stability index stood at 1.7.

Turning to LLKHPNIVRRHDSISEEGFHYLVF [L10R], the protein stability index was found to be 1.17.

As for LLKHPNIVRVHDSISEEGFHYLVF [L10V], the protein stability index worked out at 1.75.

As for LGKHPNIVRLHDSISEEGFHYLVF [L2G], the protein stability index was 2.37.

Regarding LSKHPNIVRLHDSISEEGFHYLVF [L2S], the protein stability index came out at 1.56.
